From IntAct's records for PubMed 31025394

B1: Myosin-binding protein C, slow-type (Homo sapiens), Q00872-4 (parent)
chain: MPEPTKKEENEVPAPAPPPEEPSKEKEAGTTPAKDEEEVSPPSALPPGLGSRALERKDSDWTLVETPPGEEQAKQNANSQLSILFIEKPQGGTVKVGEDITFIAKVKAEDLLRKPTIKWFKGKWMDLASKAGKHLQLKETFERHSRVYTFEMQIIKAKDNFAGNYRCEVTYKDKFDSCSFDLEVHESTGTTPNIDIRSAFKRSGEGQEDAGELDFSGLLKRREVKQQEEEPQVDVWELLKNAKPSEYEKIAFQYGITDLRGMLKRLKRMRREEKKSAAFAKILDPAYQVDKGGRVRFVVELADPKLEVKWYKNGQEIRPSTKYIFEHKGCQRILFINNCQMTDDSEYYVTAGDEKCSTELFVREPPIMVTKQLEDTTAYCGERVELECEVSEDDANVKWFKNGEEIIPGPKSRYRIRVEGKKHILIIEGATKADAAEYSVMTTGGQSSAKLSVDLKPLKILTPLTDQTVNLGKEICLKCEISENIPGKWTKNGLPVQESDRLKVVHKGRIHKLVIANALTEDEGDYVFAPDAYNVTLPAKVHVIDPPKIILDGLDADNTVTVIAGNKLRLEIPISGEPPPKAMWSRGDKAIMEGSGRIRTESYPDSSTLVIDIAERDDSGVYHINLKNEAGEAHASIKVKVVDFPDPPVAPTVTEVGDDWCIMNWEPPAYDGGSPILGYFIERKKKQSSRWMRLNFDLCKETTFEPKKMIEGVAYEVRIFAVNAIGISKPSMPSRPFVPLAVTSPPTLLTVDSVTDTTVTMRWRPPDHIGAAGLDGYVLEYCFEGTEDWIVANKDLIDKTKFTITGLPTDAKIFVRVKAVNAAGASEPKYYSQPILVKEIIEPPKIRIPRHLKQTYIRRVGEAVNLVIPFQGKPRPELTWKKDGAEIDKNQINIRNSETDTIIFIRKAERSHSGKYDLQVKVDKFVETASIDIQIIDRPGPPQIVKIEDVWGENVALTWTPPKDDGNAAITGYTIQKADKKSMEWFTVIEHYHRTSATITELVIGNEYYFRVFSENMCGLSEDATMTKESAVIARDGKIYKNPVYEDFDFSEAPMFTQPLVNTYAIAGYNATLNCSVRGNPKPKITWMKNKVAIVDDPRYRMFSNQGVCTLEIRKPSPYDGGTYCCKAVNDLGTVEIECKLEVKVIYQGVNTPGQPVFLEGQQQSLHNKDF

Assays:
[1] = variants of: B1; conditions: with acts_rabit ACTA1, P68135
[2] = variants of: B1; conditions: with myh11_rabit MYH11, P35748
Chain of myh11_rabit MYH11, P35748 (P35748 whole entry): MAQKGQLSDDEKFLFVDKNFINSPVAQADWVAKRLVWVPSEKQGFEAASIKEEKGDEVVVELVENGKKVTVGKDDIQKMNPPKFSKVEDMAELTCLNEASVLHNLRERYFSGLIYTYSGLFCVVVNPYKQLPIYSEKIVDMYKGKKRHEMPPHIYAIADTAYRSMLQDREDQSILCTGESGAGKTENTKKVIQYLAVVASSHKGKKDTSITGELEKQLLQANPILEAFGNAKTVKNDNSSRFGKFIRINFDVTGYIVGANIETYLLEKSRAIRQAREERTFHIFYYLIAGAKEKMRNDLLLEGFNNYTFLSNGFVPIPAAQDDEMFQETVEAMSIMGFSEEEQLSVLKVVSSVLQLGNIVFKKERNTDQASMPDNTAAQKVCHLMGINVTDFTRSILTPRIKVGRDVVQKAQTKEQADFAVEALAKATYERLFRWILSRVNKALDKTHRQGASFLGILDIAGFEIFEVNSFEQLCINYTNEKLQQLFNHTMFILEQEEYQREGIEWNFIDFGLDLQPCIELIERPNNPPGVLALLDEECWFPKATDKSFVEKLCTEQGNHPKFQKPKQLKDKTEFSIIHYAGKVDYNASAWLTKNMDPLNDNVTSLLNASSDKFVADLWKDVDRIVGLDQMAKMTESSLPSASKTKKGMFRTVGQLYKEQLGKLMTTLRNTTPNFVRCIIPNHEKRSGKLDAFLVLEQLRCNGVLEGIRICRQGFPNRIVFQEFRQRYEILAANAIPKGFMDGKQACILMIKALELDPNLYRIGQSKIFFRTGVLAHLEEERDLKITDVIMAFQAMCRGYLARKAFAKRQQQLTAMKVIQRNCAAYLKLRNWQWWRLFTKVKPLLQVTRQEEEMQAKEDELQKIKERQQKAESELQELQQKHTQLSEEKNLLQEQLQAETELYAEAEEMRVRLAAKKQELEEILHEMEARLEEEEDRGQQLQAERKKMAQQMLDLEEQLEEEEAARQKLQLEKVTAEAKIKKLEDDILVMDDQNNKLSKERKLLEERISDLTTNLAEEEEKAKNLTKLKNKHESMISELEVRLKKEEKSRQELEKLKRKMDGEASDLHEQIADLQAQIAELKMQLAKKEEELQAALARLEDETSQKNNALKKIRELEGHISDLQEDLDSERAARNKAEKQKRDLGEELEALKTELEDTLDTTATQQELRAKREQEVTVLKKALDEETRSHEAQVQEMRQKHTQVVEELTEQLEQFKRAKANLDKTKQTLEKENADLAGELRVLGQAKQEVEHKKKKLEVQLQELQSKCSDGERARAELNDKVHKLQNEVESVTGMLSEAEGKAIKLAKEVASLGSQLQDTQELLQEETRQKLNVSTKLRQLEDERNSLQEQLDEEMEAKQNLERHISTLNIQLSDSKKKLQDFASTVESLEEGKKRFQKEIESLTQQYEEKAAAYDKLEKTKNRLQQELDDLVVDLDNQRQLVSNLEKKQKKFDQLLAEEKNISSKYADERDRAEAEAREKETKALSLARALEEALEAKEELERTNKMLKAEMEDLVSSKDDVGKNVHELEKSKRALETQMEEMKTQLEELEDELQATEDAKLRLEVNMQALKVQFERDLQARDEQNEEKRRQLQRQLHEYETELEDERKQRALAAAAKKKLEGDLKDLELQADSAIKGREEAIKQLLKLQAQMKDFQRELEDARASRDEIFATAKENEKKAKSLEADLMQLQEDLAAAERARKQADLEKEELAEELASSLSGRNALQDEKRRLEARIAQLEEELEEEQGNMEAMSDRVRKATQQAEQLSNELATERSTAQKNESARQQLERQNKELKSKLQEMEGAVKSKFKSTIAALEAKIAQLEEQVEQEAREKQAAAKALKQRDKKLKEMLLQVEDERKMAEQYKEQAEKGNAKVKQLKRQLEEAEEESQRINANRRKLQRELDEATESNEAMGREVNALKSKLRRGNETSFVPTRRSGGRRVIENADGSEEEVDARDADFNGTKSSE

effect of a mutation on the interaction [1]	effect of a mutation on the interaction [2]	Variant
increasing interaction strength	increasing interaction strength	Y247H
increasing interaction strength	increasing interaction strength	E248K
